From patent US20220275077A1 come the findings set out here.

Like-named read-outs stand apart in the source and are kept apart here.

The target of experiment [1] is T1, human Interleukin-38 (IL-38) (human) (UniProt Q8WWZ1).
T1 sequence (looked up): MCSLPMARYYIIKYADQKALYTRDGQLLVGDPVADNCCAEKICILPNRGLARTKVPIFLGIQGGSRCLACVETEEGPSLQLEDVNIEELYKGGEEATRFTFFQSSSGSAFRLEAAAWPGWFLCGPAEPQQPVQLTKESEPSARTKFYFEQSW
Put plainly: BLI (Octet QKe), antibody on anti-mouse Fc biosensor, soluble IL-38, 1:1 model. On the technique in general: Biolayer interferometry detects binding as a change in optical thickness at a sensor tip.

A further experiment deals with T2, FERD3L (human) (UniProt Q96RJ6).
T2 sequence (looked up): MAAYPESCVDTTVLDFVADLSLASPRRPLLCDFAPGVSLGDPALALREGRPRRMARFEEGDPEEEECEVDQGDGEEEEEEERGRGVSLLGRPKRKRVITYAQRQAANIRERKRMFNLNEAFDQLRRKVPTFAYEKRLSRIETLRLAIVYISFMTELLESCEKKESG
Put plainly: CDI HuProt native protein microarray.

Another experiment addresses Hnmph1. Put plainly: CDI HuProt native protein microarray.
For experiment [2], the target named is T1, human Interleukin-38 (IL-38) (human). The experiment can be described thus: CDI HuProt native protein microarray.
The target in a further experiment is IL-1Ra (human) (UniProt P18510). The experiment can be described thus: CDI HuProt native protein microarray.
A further experiment deals with T3, IL-36a (human) (UniProt Q9UHA7).
T3 sequence (looked up): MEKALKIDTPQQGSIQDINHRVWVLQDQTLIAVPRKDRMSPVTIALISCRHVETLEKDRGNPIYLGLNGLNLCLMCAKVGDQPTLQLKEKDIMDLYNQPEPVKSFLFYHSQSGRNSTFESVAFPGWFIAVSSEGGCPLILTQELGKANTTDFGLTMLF
The experiment can be described thus: CDI HuProt native protein microarray.

The target in a further experiment is T4, IL-1α (human) (UniProt P01583).
T4 sequence (looked up): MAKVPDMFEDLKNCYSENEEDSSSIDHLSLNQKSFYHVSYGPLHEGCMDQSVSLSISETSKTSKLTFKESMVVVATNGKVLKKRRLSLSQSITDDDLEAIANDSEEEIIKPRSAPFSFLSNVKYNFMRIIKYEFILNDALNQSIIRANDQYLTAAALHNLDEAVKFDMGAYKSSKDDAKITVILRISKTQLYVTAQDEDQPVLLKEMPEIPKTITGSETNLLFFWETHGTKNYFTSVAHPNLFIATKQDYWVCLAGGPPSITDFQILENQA
The experiment can be described thus: CDI HuProt native protein microarray.

Another experiment addresses IL-1β (human) (UniProt P01584). The experiment can be described thus: CDI HuProt native protein microarray.
For another experiment, the target named is T5, IL-36b (human) (UniProt Q9NZH7).
T5 sequence (looked up): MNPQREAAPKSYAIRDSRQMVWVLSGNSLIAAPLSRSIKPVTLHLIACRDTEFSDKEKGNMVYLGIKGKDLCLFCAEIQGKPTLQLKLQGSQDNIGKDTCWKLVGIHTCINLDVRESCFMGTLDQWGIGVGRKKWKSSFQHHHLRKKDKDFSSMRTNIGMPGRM
Put plainly: CDI HuProt native protein microarray.

The target in another experiment is T6, IL-36Ra (human) (UniProt Q9UBH0).
T6 sequence (looked up): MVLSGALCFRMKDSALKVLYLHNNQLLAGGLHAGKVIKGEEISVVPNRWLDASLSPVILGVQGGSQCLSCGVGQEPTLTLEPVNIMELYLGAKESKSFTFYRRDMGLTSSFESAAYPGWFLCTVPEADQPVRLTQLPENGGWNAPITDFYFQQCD
Put plainly: CDI HuProt native protein microarray.

The target of a further experiment is T7, IL-37 (human) (UniProt Q9NZH6).
T7 sequence (looked up): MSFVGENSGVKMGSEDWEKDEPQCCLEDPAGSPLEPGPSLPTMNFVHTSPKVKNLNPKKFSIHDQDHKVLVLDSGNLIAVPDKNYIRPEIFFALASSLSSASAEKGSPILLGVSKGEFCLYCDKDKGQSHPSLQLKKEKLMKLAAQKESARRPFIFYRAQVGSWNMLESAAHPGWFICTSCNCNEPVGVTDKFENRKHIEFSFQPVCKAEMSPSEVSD
Put plainly: CDI HuProt native protein microarray.

The next experiment addresses IL-18 (human) (UniProt Q14116). The experiment can be described thus: CDI HuProt native protein microarray.
In a further experiment the target is T8, IL-33 (human) (UniProt O95760).
T8 sequence (looked up): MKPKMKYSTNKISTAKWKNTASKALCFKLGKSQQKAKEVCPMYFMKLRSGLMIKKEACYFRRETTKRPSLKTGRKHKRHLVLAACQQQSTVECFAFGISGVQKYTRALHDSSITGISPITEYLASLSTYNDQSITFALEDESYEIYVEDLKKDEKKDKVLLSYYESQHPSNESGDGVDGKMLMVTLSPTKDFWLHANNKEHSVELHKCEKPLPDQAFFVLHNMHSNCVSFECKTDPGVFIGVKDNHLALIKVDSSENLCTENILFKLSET
The experiment can be described thus: CDI HuProt native protein microarray.

In another experiment the target is T9, IL-36g (human) (UniProt Q9NZH8).
T9 sequence (looked up): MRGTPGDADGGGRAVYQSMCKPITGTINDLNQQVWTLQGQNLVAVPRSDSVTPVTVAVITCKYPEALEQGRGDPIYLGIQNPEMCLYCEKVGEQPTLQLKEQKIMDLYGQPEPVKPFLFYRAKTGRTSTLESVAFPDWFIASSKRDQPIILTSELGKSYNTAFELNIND
Put plainly: CDI HuProt native protein microarray.

Experiment [3] addresses T1, human Interleukin-38 (IL-38) (human). Put plainly: CDI HuProt native protein microarray. This is another data set of the same source.

IL-1Ra (human), sequence (P18510 26-177 limits assumed): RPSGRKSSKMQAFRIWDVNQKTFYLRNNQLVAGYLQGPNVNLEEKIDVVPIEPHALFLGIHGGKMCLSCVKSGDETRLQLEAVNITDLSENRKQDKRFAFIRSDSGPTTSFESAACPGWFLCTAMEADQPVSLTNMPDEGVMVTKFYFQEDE
IL-18 (human), sequence (Q14116 whole entry): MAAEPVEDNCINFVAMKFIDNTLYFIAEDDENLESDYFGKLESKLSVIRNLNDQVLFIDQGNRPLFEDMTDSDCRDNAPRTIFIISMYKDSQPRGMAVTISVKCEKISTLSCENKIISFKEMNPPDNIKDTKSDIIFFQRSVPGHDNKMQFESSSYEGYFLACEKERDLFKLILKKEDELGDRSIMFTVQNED
IL-1β (human), sequence (P01584 whole entry): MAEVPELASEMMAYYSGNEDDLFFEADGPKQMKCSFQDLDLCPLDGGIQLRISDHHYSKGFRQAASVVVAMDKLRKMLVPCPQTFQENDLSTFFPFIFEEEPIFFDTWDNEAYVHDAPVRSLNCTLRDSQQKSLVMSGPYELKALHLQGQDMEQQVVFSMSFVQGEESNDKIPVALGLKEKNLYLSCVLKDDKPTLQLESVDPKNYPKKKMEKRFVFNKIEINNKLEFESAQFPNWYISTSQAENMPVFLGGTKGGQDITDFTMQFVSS

B1: CD1-M3 (antibody, from a related filing, V domains shown)
VH: EVQLQQSGPELVKPGASVKIPCKASGYTFTDYNMDWVKQSHGKSLEWIGDINPNNGGTIYNQKFKGKATLTVDKSSSTAYMELRSLTSEDTAVYYCSRPYYGYFAYWGQGTLVTVSA
VL: DVVMTQSPLSLPVSLGDQASISCRSSQSLVHSHENTFLHWYLQKPGQSPKLLIYRVSNRFSGVPDRFSGSGSGTDFTLKISRVEAEDLGVYFCSQSTHVPLTFGAGTKLELK
With B1, in [1], the Kd – broadly, a measure of binding affinity in units of concentration – was 0.721 nM. The F635 in the experiment with FERD3L (human) amounted to 19100; with Hnmph1 it was 4130; in experiment [2], 54000. The Z-score was 49.2 in the experiment with FERD3L (human); 10.6 with Hnmph1; 140 in experiment [2]; -0.013 in the experiment with IL-1Ra (human); -0.008 with IL-36a (human); -0.013 in the experiment with IL-1α (human). The Z-score in the experiment with IL-1β (human) is -0.016; with IL-36b (human), -0.016; with IL-36Ra (human) it was -0.017; with IL-37 (human), -0.013; with IL-18 (human), -0.016; with IL-33 (human), -0.02. For the same molecule, the Z-score is -0.017 with IL-36g (human) and 140 in experiment [3]. Moreover, the s-score with FERD3L (human) turned out to be 26.2; with Hnmph1, 5; in [2] it was 90.3.

B2: CD1-M8 (antibody, from a related filing, V domains shown)
VH: EVQLQQSGPELVKPGASVKMSCKASGYTFTDYYIHWVKQSHGKGLEWIGYIFPNNGGNGYSQKFKGKATMTVDKSSSTAYMELRSLTSEDSAVYYCARGGYDAGFVYWGQGTLVTVSA
VL: DIVMSQSPSSLAVSAGEKVTMSCKSSQSLFNSGARKNFLAWYQQKPGQSPKLLIYWASTRESGVPDRFTGSGSGTDFTLTISSVQAEDLAVYYCKQSYYLITFGAGTKLELK
As for B2, the F635 with FERD3L (human) amounted to 16300; in [2] it was 45600. Moreover, the Z-score with FERD3L (human) is 50.9; with IL-1Ra (human), 0.003; with IL-36a (human), 0.012; in the experiment with IL-1α (human) it was -0.014; with IL-1β (human), -0.017; with IL-36b (human), -0.01. In addition, the Z-score was -0.019 in the experiment with IL-36Ra (human); -0.016 with IL-37 (human); -0.016 with IL-18 (human); -0.014 in the experiment with IL-33 (human); -0.008 with IL-36g (human); 142 in experiment [3]. The values for the s-score (in the experiment with FERD3L (human); in [2]) were 40.8 and 91.5, respectively.
